The text below walks through data of patent publication US20040043420A1, “Method of identifying conformation-sensitive binding peptides and uses thereof” (priority 2003, published 2004).

Experiment [1] addresses T1, ER α (UniProt P03372 1-595, limits assumed).
T1 construct: also called estrogen receptor α; ERα-ERE
T1 sequence (looked up): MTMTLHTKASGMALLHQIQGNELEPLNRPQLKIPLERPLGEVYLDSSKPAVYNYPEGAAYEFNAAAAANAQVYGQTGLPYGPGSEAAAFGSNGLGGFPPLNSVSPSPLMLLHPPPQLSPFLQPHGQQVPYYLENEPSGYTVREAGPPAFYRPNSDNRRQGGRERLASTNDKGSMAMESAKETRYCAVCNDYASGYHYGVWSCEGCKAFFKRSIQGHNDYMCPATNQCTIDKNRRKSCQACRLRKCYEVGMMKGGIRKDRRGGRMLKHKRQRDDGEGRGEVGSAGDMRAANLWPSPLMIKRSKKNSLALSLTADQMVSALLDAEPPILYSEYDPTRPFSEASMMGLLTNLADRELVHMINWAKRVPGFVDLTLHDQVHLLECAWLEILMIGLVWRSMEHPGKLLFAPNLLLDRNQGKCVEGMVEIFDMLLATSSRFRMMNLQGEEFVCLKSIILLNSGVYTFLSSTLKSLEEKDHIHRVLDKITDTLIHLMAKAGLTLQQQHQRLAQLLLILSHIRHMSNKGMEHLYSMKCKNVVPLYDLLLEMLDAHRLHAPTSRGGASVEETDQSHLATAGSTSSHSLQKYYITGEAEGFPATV
Kind of experiment: phage isolated on ERα on plastic; Tamoxifen.

For experiment [2], the target named is T1, ER α. Kind of experiment: phage isolated on ERα-ERE; Estradiol.
The target of a further experiment is T2, pVP16-AR (HSV), P10275.
T2 chain: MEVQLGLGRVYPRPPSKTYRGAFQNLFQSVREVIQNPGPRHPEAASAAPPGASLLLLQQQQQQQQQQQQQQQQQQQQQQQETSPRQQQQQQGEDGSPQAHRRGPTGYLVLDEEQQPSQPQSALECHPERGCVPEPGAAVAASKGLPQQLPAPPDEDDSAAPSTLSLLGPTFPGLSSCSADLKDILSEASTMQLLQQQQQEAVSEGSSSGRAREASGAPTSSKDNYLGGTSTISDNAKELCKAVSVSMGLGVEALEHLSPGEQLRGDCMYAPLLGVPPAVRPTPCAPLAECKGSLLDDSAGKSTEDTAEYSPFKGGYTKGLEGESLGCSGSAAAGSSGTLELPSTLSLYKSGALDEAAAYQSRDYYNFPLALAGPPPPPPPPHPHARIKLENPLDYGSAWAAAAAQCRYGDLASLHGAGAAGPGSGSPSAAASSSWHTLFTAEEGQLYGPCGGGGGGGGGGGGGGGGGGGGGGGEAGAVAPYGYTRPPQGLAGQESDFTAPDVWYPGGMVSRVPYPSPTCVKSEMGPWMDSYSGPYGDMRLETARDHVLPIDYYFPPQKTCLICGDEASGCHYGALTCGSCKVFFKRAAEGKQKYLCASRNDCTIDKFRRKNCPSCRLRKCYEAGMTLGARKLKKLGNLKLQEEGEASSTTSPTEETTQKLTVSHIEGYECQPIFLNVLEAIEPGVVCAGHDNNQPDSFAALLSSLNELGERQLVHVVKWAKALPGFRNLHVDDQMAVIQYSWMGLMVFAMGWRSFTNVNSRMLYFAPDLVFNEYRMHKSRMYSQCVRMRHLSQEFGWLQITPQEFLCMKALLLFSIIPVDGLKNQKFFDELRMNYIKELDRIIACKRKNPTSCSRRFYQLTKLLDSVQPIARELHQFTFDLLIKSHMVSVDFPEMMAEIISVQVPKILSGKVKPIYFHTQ
Briefly: cell-based or functional assay.

For experiment [3], the target named is T3, Gal4 transcriptional activation domain (AD) fused in frame with AR (yeast), P10275.
T3 chain: T2 chain
Kind of experiment: cell-based or functional assay.

No end group written: not given here.

SRDNCGAGLWAGCSR [19PT]: the binding result in the experiment with ER α [1] is on record as “binds”. For SSLRCYLSSSKVDQWACSR (not fully specified; cysteine pairing not given here) [17E], the binding result with ER α [2] was “binds”. For the molecule SRLEELLLMDFWRSR [5E], the binding result in the experiment with ER α [2] is listed as “binds”. Same read-out and setting: the same measure for SSKLWQLLSSPIDSR [6E]: “binds”; for SSTGILWKLLTAESR [3E]: “binds”.

Take SSSPWWSFNLRDMSR [12PT]: the binding result in the experiment with ER α [1] is “binds”. Same read-out and setting: in the case of SSSATSIKVQYQISR [15PT] it was “binds”.

B1: B5G11, P04386 1-147 (peptide)
chain: MKLLSSIEQACDICRLKKLKCSKEKPKCAKCLKNNWECRYSPKTKRSPLTRAHLTEVESRLERLEQLFLLIFPREDLDMILKMDSLQDIKALLTGLFVQDNVNKDAVTDRLASVETDMPLTLRQHRISATSSSEESSNKGQRQLTVSEFRSSVFEQMYLCTGGSLDLQPS
modifications: not checked
In the experiment with pVP16-AR (HSV), P10275, B1 yielded a luciferase (mammalian two-hybrid, Huh-7), CYP. (Relative Light Units) of 4.46; a luciferase (mammalian two-hybrid, Huh-7), DHT (Relative Light Units) of 15.8; a luciferase (mammalian two-hybrid, Huh-7), MPA (Relative Light Units) of 8.03; a luciferase (mammalian two-hybrid, Huh-7), RU486 (Relative Light Units) of 0.105. In the experiment with pVP16-AR (HSV), P10275, this molecule showed a luciferase (mammalian two-hybrid, Huh-7), no compound (Relative Light Units) of 0.0503. In experiment [3], this molecule gave a Fold induction (yeast two-hybrid) of 6 fold; a β-galactosidase activity (yeast two-hybrid), CPA of 0.973; a β-galactosidase activity (yeast two-hybrid), DHT of 3.96; a β-galactosidase activity (yeast two-hybrid), No Lig of 0.638. The β-galactosidase activity (yeast two-hybrid), RU in experiment [3] is 0.9.

For SSYKPHSLLEWHLLGGTSR [18E], in the experiment with ER α [2], the binding result is reported as “binds”. For the molecule SRDTGDMWWGRGGSR [10PT], the binding result with ER α [1] was “binds”. On the same count and under the same terms, in the case of SSGWIEQKLRGSFSR [14PT] it was “binds”.

B2: B8H3, P04386 1-147 (peptide)
chain: MKLLSSIEQACDICRLKKLKCSKEKPKCAKCLKNNWECRYSPKTKRSPLTRAHLTEVESRLERLEQLFLLIFPREDLDMILKMDSLQDIKALLTGLFVQDNVNKDAVTDRLASVETDMPLTLRQHRISATSSSEESSNKGQRQLTVSEFHSRLRVEVVSWGIGSTCSQANSGRISYDL
modifications: not checked
For the molecule B2, in the experiment with pVP16-AR (HSV), P10275, the luciferase (mammalian two-hybrid, Huh-7), CYP. (Relative Light Units) was 10.5; the luciferase (mammalian two-hybrid, Huh-7), DHT (Relative Light Units) is 11.6; the luciferase (mammalian two-hybrid, Huh-7), MPA (Relative Light Units) came to 11.3; the luciferase (mammalian two-hybrid, Huh-7), RU486 (Relative Light Units) came to 3.88. Besides, in the experiment with pVP16-AR (HSV), P10275, the luciferase (mammalian two-hybrid, Huh-7), no compound (Relative Light Units) turned out to be 0.132. In addition, in experiment [3], the Fold induction (yeast two-hybrid) amounted to 22 fold; the β-galactosidase activity (yeast two-hybrid), CPA was found to be 0.393; the β-galactosidase activity (yeast two-hybrid), DHT is 3.81; the β-galactosidase activity (yeast two-hybrid), No Lig came out at 0.174. For the same molecule, the β-galactosidase activity (yeast two-hybrid), RU in experiment [3] was 0. For SRSLLMDMLMSDDYVTVSR [7E], the binding result with ER α [2] is given as “binds”. Same read-out and setting: in the case of SRLEYYLRLGTYESR [10E] it was “binds”. As to SSSWSYGKPTFLSSR [9PT], the binding result with ER α [1] is reported as “binds”.

In the case of SSKYVFGFQVAGGSR [7PT], the binding result in the experiment with ER α [1] is reported as “binds”.

For SSRLLGDFGGSVVSR [6PT], the binding result with ER α [1] was “binds”. Take SSHGILWRLLSEGSR [9E]: in the experiment with ER α [2], the binding result is on record as “binds”.

On to SSRLLACELMYEDADVCSR [8E], for which the binding result with ER α [2] is given as “binds”. With SSWHSRWDLALGFSR [17PT], the binding result in the experiment with ER α [1] is given as “binds”. Regarding SSWPYLPKREEWASR [13PT], the binding result with ER α [1] is “binds”. For the molecule SSCLREILLYGACSR (not fully specified; cysteine pairing not given here) [13E], in the experiment with ER α [2], the binding result was “binds”. As for SSRMGHVWYDWTFSR [5PT], the binding result with ER α [1] is recorded as “binds”. As for SRLTCLLQSNGWDSEQCSR [E1-7], the binding result with ER α [2] is recorded as “binds”. For the molecule SSWAGIKFGKPPHSR [8PT], the binding result with ER α [1] is listed as “binds”. The same measure, in the same setting: the same measure for SSGRYDPFVLNAASR [11PT]: “binds”. With HSHSPLLMALLAPPGG [15E], the binding result with ER α [2] is listed as “binds”. As to SSGYWGGWDYGAGSR [18PT], the binding result with ER α [1] is on record as “binds”. Still for that read-out and setting: the same measure for SSYLTLGKSMMAISR [16PT]: “binds”.

B3: B8E9, P04386 1-147 (peptide)
chain: MKLLSSIEQACDICRLKKLKCSKEKPKCAKCLKNNWECRYSPKTKRSPLTRAHLTEVESRLERLEQLFLLIFPREDLDMILKMDSLQDIKALLTGLFVQDNVNKDAVTDRLASVETDMPLTLRQHRISATSSSEESSNKGQRQLTVSEFQQCMCAEVKSWLGGSLDLQPS
modifications: not checked
In the experiment with pVP16-AR (HSV), P10275, B3 came in with a luciferase (mammalian two-hybrid, Huh-7), CYP. (Relative Light Units) of 16; a luciferase (mammalian two-hybrid, Huh-7), DHT (Relative Light Units) of 19.6; a luciferase (mammalian two-hybrid, Huh-7), MPA (Relative Light Units) of 18.5; a luciferase (mammalian two-hybrid, Huh-7), RU486 (Relative Light Units) of 10.2. The luciferase (mammalian two-hybrid, Huh-7), no compound (Relative Light Units) with pVP16-AR (HSV), P10275 is 0.209. In experiment [3], this molecule showed a Fold induction (yeast two-hybrid) of 4 fold; a β-galactosidase activity (yeast two-hybrid), CPA of 0.563; a β-galactosidase activity (yeast two-hybrid), DHT of 1.75; a β-galactosidase activity (yeast two-hybrid), No Lig of 0.499. Further, the β-galactosidase activity (yeast two-hybrid), RU in experiment [3] was 0.8. With SRLVALLKSPWSVSR [4E], in the experiment with ER α [2], the binding result was “binds”. Still for that read-out and setting: in the case of SRSPILTHLLSLGSR [2E] it was “binds”.
